Measured values from paper PMC2784912 (Biochemistry, 2008).

Assays:
[1] = system: MDA-MB-231 cancer cell line; assay: Apoptosis by annexin V/propodium iodide flow cytometry; assay type: cell-based, human; conditions: MDA-MB-231, 24 h, annexin V/PI
[2] = biological target: XIAP BIR2-only protein (residues 120–240) (human) (UniProt P98170); assay: fluorescence polarisation
[3] = biological target: XIAP linker–BIR2–BIR3 protein (residues 120–356) (human) (UniProt P98170); assay: fluorescence polarisation
[4] = biological target: XIAP BIR3-only protein (residues 241–356) (human) (UniProt P98170); assay: fluorescence polarisation

Ki [2]	Ki [3]	Ki [4]	Compound	induction of apoptosis [1]
–	–	–	COC(=O)CC[C@H](NC(=O)[C@H](CC(=O)OC)NC(=O)OCc1ccccc1)C(=O)N[C@H](C(=O)N[C@@H](CC(=O)OC)C(=O)CF)C(C)C [Z-DEVD-FMK]	no effect on cells
11700 nM	900 nM	86 nM	compound 2 (monovalent Smac mimetic, N-methyl-AKPF) (peptide)	–
